According to publication PMC8803112:

What was measured:
[1] = target: C1r complement protein (human)
[2] = target: C1s complement protein (human)
[3] = target: C3 complement protein (human)

“complement evasion factor (CEF), recombinant Spy0136 (from UniProt Q9A1R6 28-221) (natural protein)” was tested, and the Wieslab complement assay, classical pathway activity (C5b-9 formation) of serum pre-incubated with 2 µM rCEF [1] was under 10 % activity, the Wieslab complement assay, classical pathway activity (C5b-9 formation) of serum pre-incubated with 2 µM rCEF [2] was under 10 % activity and the C3b deposition on S. pyogenes opsonised with human serum with 0.5 µM rCEF, flow cytometry [3] was 30 % decrease.
